This is an account of results in patent US7138262.

The assay addresses T1, mannose receptor on mouse J774E macrophage cells (mouse) (UniProt Q61830).
T1 sequence (looked up): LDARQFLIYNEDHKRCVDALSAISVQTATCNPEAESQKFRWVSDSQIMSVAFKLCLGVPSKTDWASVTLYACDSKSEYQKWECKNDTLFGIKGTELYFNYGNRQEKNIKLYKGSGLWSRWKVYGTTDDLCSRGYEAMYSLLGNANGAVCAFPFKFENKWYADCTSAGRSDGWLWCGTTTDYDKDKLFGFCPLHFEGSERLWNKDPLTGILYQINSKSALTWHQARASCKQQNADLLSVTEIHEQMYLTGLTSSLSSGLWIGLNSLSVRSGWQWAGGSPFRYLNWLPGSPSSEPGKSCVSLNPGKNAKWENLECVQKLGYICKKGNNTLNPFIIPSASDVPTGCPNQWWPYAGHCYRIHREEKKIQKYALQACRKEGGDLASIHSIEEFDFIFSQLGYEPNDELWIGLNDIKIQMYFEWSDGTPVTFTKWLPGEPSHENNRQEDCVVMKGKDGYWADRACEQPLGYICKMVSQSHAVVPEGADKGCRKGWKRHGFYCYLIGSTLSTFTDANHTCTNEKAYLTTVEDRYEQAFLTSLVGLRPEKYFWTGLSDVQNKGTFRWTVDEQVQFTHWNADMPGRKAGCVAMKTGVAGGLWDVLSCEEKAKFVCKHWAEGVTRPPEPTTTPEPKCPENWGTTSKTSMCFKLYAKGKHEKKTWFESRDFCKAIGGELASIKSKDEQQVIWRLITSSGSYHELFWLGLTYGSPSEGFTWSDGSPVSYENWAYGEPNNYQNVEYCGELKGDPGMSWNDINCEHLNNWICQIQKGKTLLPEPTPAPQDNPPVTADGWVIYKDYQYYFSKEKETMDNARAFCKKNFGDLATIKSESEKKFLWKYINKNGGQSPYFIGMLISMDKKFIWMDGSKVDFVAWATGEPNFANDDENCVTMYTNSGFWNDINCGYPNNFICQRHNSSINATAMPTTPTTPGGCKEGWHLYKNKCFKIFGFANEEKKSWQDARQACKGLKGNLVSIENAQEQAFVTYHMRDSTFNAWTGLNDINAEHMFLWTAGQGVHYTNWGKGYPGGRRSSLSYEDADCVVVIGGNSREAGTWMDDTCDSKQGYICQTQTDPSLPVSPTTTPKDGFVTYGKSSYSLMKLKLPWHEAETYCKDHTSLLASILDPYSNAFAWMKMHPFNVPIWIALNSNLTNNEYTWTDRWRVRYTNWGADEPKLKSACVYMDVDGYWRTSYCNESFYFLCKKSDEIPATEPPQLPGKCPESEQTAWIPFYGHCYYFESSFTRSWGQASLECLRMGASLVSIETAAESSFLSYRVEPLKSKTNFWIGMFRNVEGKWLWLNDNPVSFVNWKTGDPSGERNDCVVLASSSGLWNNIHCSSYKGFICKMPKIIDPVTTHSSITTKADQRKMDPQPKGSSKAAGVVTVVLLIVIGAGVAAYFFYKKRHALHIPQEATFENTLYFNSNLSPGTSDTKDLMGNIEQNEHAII
Briefly: cell-based or functional assay.

B1: Gene-Activated GCB (GA-GCB) from untreated HT-1080 cells (enzyme)
chain: ARPCIPKSFGYSSVVCVCNATYCDSFDPPTFPALGTFSRYESTRSGRRMELSMGPIQANHTGTGLLLTLQPEQKFQKVKGFGGAMTDAAALNILALSPPAQNLLLKSYFSEEGIGYNIIRVPMASCDFSIRTYTYADTPDDFQLHNFSLPEEDTKLKIPLIHRALQLAQRPVSLLASPWTSPTWLKTNGAVNGKGSLKGQPGDIYHQTWARYFVKFLDAYAEHKLQFWAVTAENEPSAGLLSGYPFQCLGFTPEHQRDFIARDLGPTLANSTHHNVRLLMLDDQRLLLPHWAKVVLTDPEAAKYVHGIAVHWYLDFLAPAKATLGETHRLFPNTMLFASEACVGSKFWEQSVRLGSWDRGMQYSHSIITNLLYHVVGWTDWNLALNPEGGPNWVRNFVDSPIIVDITKDTFYKQPMFYHLGHFSKFIPEGSQRVGLVASQKNDLDAVALMHPDGSAVVVVLNRSSKDVPLTIKDPAVGFLETISPGYSIHTYLWRRQ
modifications: N-linked glycans as processed by untreated HT-1080 cells (no mannosidase inhibitor)
As for B1, the Inhibition (%) of uptake into J774E cells by mannan was 53%; the Internalization into J774E cells in the presence of 2 µg/mL mannan: glucocerebrosidase activity (Units/mg cell lysate), absolute (Units/mg cell lysate) was determined as 1680; the Internalization into J774E cells in the presence of 2 µg/mL mannan: glucocerebrosidase activity (Units/mg cell lysate), background corrected (Units/mg cell lysate) turned out to be 1020; the Internalization into J774E cells: glucocerebrosidase activity (Units/mg cell lysate), absolute (Units/mg cell lysate) turned out to be 2820. Moreover, the Internalization into J774E cells: glucocerebrosidase activity (Units/mg cell lysate), background corrected (Units/mg cell lysate) worked out at 2160 and the Uptake into J774E cells, fold over background was 3 fold.

B2: Gene-Activated GCB (GA-GCB) from HT-1080 cells treated with swainsonine (1 µg/mL) (enzyme)
chain: B1 chain
modifications: N-linked glycans not trimmed by Golgi mannosidase II (cells treated with the class 2 mannosidase inhibitor swainsonine, 1 µg/mL)
Take B2: the Inhibition (%) of uptake into J774E cells by mannan was 67%; the Internalization into J774E cells in the presence of 2 µg/mL mannan: glucocerebrosidase activity (Units/mg cell lysate), absolute (Units/mg cell lysate) came out at 2040; the Internalization into J774E cells in the presence of 2 µg/mL mannan: glucocerebrosidase activity (Units/mg cell lysate), background corrected (Units/mg cell lysate) came out at 1380; the Internalization into J774E cells: glucocerebrosidase activity (Units/mg cell lysate), absolute (Units/mg cell lysate) was found to be 4790. The molecule further gave an Internalization into J774E cells: glucocerebrosidase activity (Units/mg cell lysate), background corrected (Units/mg cell lysate) of 4130 and an Uptake into J774E cells, fold over background of 7 fold.

B3: Gene-Activated GCB (GA-GCB) from HT-1080 cells treated with kifunensine (1 µg/mL) (enzyme)
chain: B1 chain
modifications: N-linked high mannose glycans (cells treated with the class 1 mannosidase inhibitor kifunensine, 1 µg/mL)
For B3, the Inhibition (%) of uptake into J774E cells by mannan stood at 73%; the Internalization into J774E cells in the presence of 2 µg/mL mannan: glucocerebrosidase activity (Units/mg cell lysate), absolute (Units/mg cell lysate) is 2980; the Internalization into J774E cells in the presence of 2 µg/mL mannan: glucocerebrosidase activity (Units/mg cell lysate), background corrected (Units/mg cell lysate) was 2320; the Internalization into J774E cells: glucocerebrosidase activity (Units/mg cell lysate), absolute (Units/mg cell lysate) amounted to 9180. The molecule also came in with an Internalization into J774E cells: glucocerebrosidase activity (Units/mg cell lysate), background corrected (Units/mg cell lysate) of 8530; an Uptake into J774E cells relative to GA-GCB from swainsonine treated cells of 2 fold; an Uptake into J774E cells, fold over background of 14 fold.
